Test system: MS2 coat protein
Assay: apparent KD of MS2 coat protein; designed switch direction (-1 OFF switch, 1 ON switch): -1; higher = weaker reporter binding
How it was run: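 Designed RNA switches sharing common flanks were transcribed on Illumina chips by stalled E. coli RNA polymerase. They were titrated with SNAP-549-labelled MS2 coat protein, from 0.7 or 1.5 nM doubling to 3 µM, in Tris-HCl pH 7.5 buffer with KCl, MgCl2, BSA, DTT, tRNA and Tween-20. Titrations ran without input, with 200 uM small-molecule ligand, or with an oligonucleotide input. The apparent KD of each design is the median over its clusters, after curve-fitting of normalised cluster fluorescence.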

[1] = Eterna round: R95, input ligand: FMN 200 uM
[2] = Eterna round: R95, input ligand: microRNA oligo, concentration not stated
[3] = Eterna round: R95, input ligand: none
[4] = input ligand: microRNA oligo, concentration not stated

Sequence | apparent KD of MS2 coat protein [1] | apparent KD of MS2 coat protein [2] | apparent KD of MS2 coat protein [3] | apparent KD of MS2 coat protein (input ligand: FMN 200 uM) | apparent KD of MS2 coat protein (input ligand: none) | apparent KD of MS2 coat protein [4]
GAGUGACAUGAGGAUCACCCAUGUGAGGAUAUCGGACGGACCAAAUUAACAACCGCCGCGAGAAGGCACAUCGG [Exclusion 1 V21] (puzzle: Exclusion 1) | 130 nM | 144 nM | 129 nM | – | – | –
GAGUUAACAUGAGGAAUAUACAUGAGGAUCACCCAUGUUAACAAAAUUUUUGCUCGUCUUAUAACAACAAUUAACUC [Alarm 3 - Jieux - Sensor, turn-off variant 1] (Eterna round: R97, puzzle: Sensor, turn-off variant 1) | – | – | – | 272 nM | 151 nM | –
GAGUUAGCGUGAGGAAUAUACAUGAGGAUCACCCAUGUUAGCAAAUAUAUUGCUCGUCUUAUAACAACAAUUAACUC [Alarm 9 - Jieux - Sensor, turn-off variant 1] (Eterna round: R97, puzzle: Sensor, turn-off variant 1) | – | – | – | 13.6 nM | 14.3 nM | –
GAUACACGUUCAGGAUAUCGCGCCCAAUUACACCUCUUCCGACGGACAUGAGGAUCACCCAUGUGCGAGAAGGGAACCAAAACU [Orquonbedi] (Eterna round: R96, puzzle: Exclusion NG 2) | – | – | – | 13.6 nM | 17.4 nM | 13.2 nM
GAUCAACAUGAGGAUCACCCAUGUGAGGAUAUGAUACUAUGUACUUCGGUACAUAGUAUCAGAAGGCAUGUAAA [Ex1-3: 78] (puzzle: Exclusion 1) | – | 54.5 nM | – | – | – | –
GAUCAACAUGAGGAUCACCCAUGUGAGGAUAUGUAUCAUAGAUCUUCGGAUCUAUGAUACAGAAGGCAUGUGAA [Ex1-3: 101] (puzzle: Exclusion 1) | – | 67.8 nM | – | – | – | –
GAUCAACAUGAGGAUCACCCAUGUGAGGAUAUUGACUUGCUCACUUUCCCAUCAGAGUCGAGAAGGCGCAUCUG [1986#21] (Eterna round: R97, puzzle: Exclusion 1) | – | – | – | 28.1 nM | 40.8 nM | –
GAUCAGCUUGUGAGGAUAUCCGGGCUUAAAGGCUAGGAGAAGGUACAUGAGGAUCACCCAUGUAGAGUCCUGGG [Zageesen] (puzzle: Brourd's mod of Exclusion 4) | – | 50.4 nM | – | – | – | –
GAUCAGGUAGGAUAUGCAGGAUCGGACUUGAGGAUCACCCAAGUGGCCAAAGUGCGUCCCGCAGAAGGGCCAAAAC [Biinxelace] (Eterna round: R97, puzzle: Exclusion 5) | – | – | – | 439 nM | 618 nM | –
GAUCCACAUGAGGAUCACCCAUGUGAGGAUAUGAUACUAUGUACUUCGGUACAUAGUAUCAGAAGGCAUAUGAA [Ex1-3: 47] (Eterna round: R96, puzzle: Exclusion 1) | – | – | – | 199 nM | 41.7 nM | 33.2 nM
GAUCCACAUGAGGAUCACCCAUGUGAGGAUAUGAUACUAUGUACUUCGGUACAUAGUAUCAGAAGGCAUAUGAA [Ex1-3: 47] (puzzle: Exclusion 1) | – | 45.6 nM | – | – | – | –
GAUCCGUUAGGAUAUGCGGGUGUCACCAGAGUGAUAGCCUCGCAGAAGGAACAUGAGGAUCACCCAUGUAGCAA [Eternabot (L1) Solution 92] (Eterna round: R97, puzzle: Exclusion 4) | – | – | – | 111 nM | 38.6 nM | –
GAUCGACAUGAGGAUCACCCAUGUCAGGAUAUCUACAUUGAAGCUUCGGCUUCAAUGUAGAGAAGGGACAUAAU [E1/13-B1] (Eterna round: R97, puzzle: Exclusion 1) | – | – | – | 38.6 nM | 39.7 nM | –
GAUCGUUUAGAGGAUAUCAUGCUAAACAUUACAUGAGAAGGCUAGACAUGAGGAUCACCCAUGUAUGCUCGUGA [Exclusion 6 - 9:a] (puzzle: Exclusion 6) | 20.8 nM | 14 nM | 14.8 nM | – | – | –
GAUGAGGUAGGAUAUACGAUAAUAUAGGGUAGAUAUAUAACACAUGAGGAUCACCCAUGUAGAAGGACCAGUAG [Mat - Exclusion 2 - Mod of my Tesla design - D66] (Eterna round: R96, puzzle: Exclusion 2) | – | – | – | 143 nM | 42.3 nM | 30.3 nM
GAUGAGGUAGGAUAUACGAUAAUAUAGGGUAGAUAUAUAACACAUGAGGAUCACCCAUGUAGAAGGACCAGUAG [Mat - Exclusion 2 - Mod of my Tesla design - D66] (puzzle: Exclusion 2) | – | 33.4 nM | – | – | – | –
GAUGCUUCGGCAUCUACAAGCUUUUUGCUCGUCUUAUUAACAUGAGGAUCACCCAUGUACAAGAGACCUCAUGUAUU [Sensor v3 - turn-off variant 2 - 12] (puzzle: Sensor v3, turn-off variant 2) | 125 nM | 14.3 nM | 202 nM | – | – | –

Sequence | apparent KD of MS2 coat protein [1] | apparent KD of MS2 coat protein [2] | apparent KD of MS2 coat protein [3] | apparent KD of MS2 coat protein (input ligand: FMN 200 uM) | apparent KD of MS2 coat protein (input ligand: none) | apparent KD of MS2 coat protein [4]
GAUUAACAUGAGGAUCACCCAUGUGAGGAUAUUGACUUGCUCACUUUCCCAUUAGAGUCGAGAAGGCGCAUCUU [1986#18] (Eterna round: R97, puzzle: Exclusion 1) | – | – | – | 25.2 nM | 28.6 nM | –
GAUUAACAUGAGGAUCACCCAUGUGAGGAUAUUGACUUGCUCACUUUCCCAUUUGAGUCGAGAAGGCGCAUCUG [1986#22] (Eterna round: R97, puzzle: Exclusion 1) | – | – | – | 68.8 nM | 39 nM | –
GAUUACCUAACAAGUAAGCACAUGAGGAUCACCCAUGUGGAGGGUCAUGUCAUGCUCAAGAUGCUCGUCAUUUCUAG [Eternabot (L2) Solution 38] (Eterna round: R97, puzzle: Sensor, turn-off variant 1) | – | – | – | 180 nM | 193 nM | –
GAUUAUGCAAGCUUUAGGGACAUGAGGAUCACCCAUGUUCGUCUUAUUGAUCUAGGUACGCUGACGUACCUAGAUCU [JL-sv1-2.32 Brourd mod] (puzzle: Sensor v3, turn-off variant 1) | 17 nM | 44.6 nM | 14.8 nM | – | – | –
GAUUAUGCGAGCUUUAGGGACAUGAGGAUCACCCAUGUUCGUCUUAUUAAUCUAGGUGCACUGACAUACCUAAAUCU [JMF 87] (puzzle: Sensor v3, turn-off variant 1) | 20.7 nM | 30 nM | 21.7 nM | – | – | –
GAUUAUGCGAGCUUUAGGGACAUGAGGAUCACCCAUGUUCGUCUUAUUGGUCUGAAUGCACUGACAUACCUAAAUCU [JMF 76] (puzzle: Sensor v3, turn-off variant 1) | 18.7 nM | 24.2 nM | 17.5 nM | – | – | –
GAUUAUGCGAGCUUUAGGGACAUGAGGAUCACCCAUGUUCGUCUUGUUGAUCUAGGUGCACUAACAUACCUAAAUCU [JMF 33] (puzzle: Sensor v3, turn-off variant 1) | 24.7 nM | 28.7 nM | 22.6 nM | – | – | –
GCAAAAUAUCAGGAUAUGACUAGCUGCGGCUAGUCAGAAGGGAUAACAUGAGGAUCACCCAUGUGAUAAAGUGU [JR_Ex6_Sub029] (Eterna round: R97, puzzle: Exclusion 6) | – | – | – | 66.7 nM | 60.4 nM | –
GCAAAAUAUCAGGAUAUGACUUUUUGCGUUAAGUCAGAAGGGAUAACAUGAGGAUCACCCAUGUGAUAUAGUGU [JR_Ex6_Sub031] (Eterna round: R97, puzzle: Exclusion 6) | – | – | – | 261 nM | 177 nM | –
GCAAGCAGCUUGGAAUGAGACAUGAGGAUCACCCAUGUUCAGCACAAAGCCUUCAAUCAUCAGCUCGAAAGUAAAUG [Eternabot (L2) Solution 16] (Eterna round: R97, puzzle: Sensor, turn-off variant 1) | – | – | – | 14.7 nM | 16.3 nM | –
GCAAGCUUUUUGGUUUUCAACAUGAGGAUCACCCAUGUUCGUCUUGUGCUCGGGCUUGGGCGGUGUCCGGGUUUGGG [Default title] (Eterna round: R97, puzzle: Sensor, turn-off variant 1) | – | – | – | 45.8 nM | 48.5 nM | –
GCAAGUUUUUUGUUUUUUAACAUGAGGAUCACCCAUGUAUUUUUAUAGUAUGUGUGAUUAAGAUCUUGUGGUCUUAG [JR_SV3TOV1_Sub101] (puzzle: Sensor v3, turn-off variant 1) | 59.1 nM | 92.2 nM | 62.9 nM | – | – | –
GCACGGAAUGCAGGAUAUCUGUGCGAUUAGCUCAGAGAAGGGCACAUGAGGAUCACCCAUGUGUAUAAAACACAAAAUCCGUGC [Eli exng1 - 067] (Eterna round: R96, puzzle: Exclusion NG 1) | – | – | – | 13.5 nM | 13.8 nM | 7.71 nM
GCACGGAGUGUAGGAUAUCUGUGCGAUUAGCUCAGAGAAGGACACAUGAGGAUCACCCAUGUGUUCCACGGAAACGUACCGUGC [Eli exng1 - 050] (Eterna round: R96, puzzle: Exclusion NG 1) | – | – | – | 11.2 nM | 12.5 nM | 8.87 nM
GCACGGAGUGUAGGAUAUCUGUGCGAUUAGCUCAGAGAAGGACACAUGAGGAUCACCCAUGUGUUCCUCGGAAACGAACCGUGC [Eli exng1 - 051] (Eterna round: R96, puzzle: Exclusion NG 1) | – | – | – | 32.2 nM | 14 nM | 10.9 nM
GCACGGAUGGUAGGAUAUCAGUGCGAUUAGCUCUGAGAAGGACCACAUGAGGAUCACCCAUGUACCUCAAUUAUCCUUCCGUGC [Eli exng1 - 022] (Eterna round: R96, puzzle: Exclusion NG 1) | – | – | – | 13.8 nM | 17.7 nM | 11.3 nM
GCACGGGUGGUAGGAUAUCCUUGCGAUUAGCAAGGAGAAGGACCACAUGAGGAUCACCCAUGUACCUCAAUUAUCCUUCCGUGC [Eli exng1 - 024] (Eterna round: R96, puzzle: Exclusion NG 1) | – | – | – | 16.8 nM | 14.5 nM | 10.4 nM

From the supplement of paper PMC9170038
